Source: patent US11618906B2, “Hydroxylation techniques” (HYPHA DISCOVERY LTD., priority 2018, dated 2023)

Assays:
Type in all cases: biochemical
[1] = Hydroxylation of flufenamic acid catalysed by cytochrome P450 aluC09 and mutants; conditions: for Flufenamic Acid (Substrate) 1.93 mins / Hydroxy-Flufenamic Acid (1) 1.69 mins / Hydroxy-Flufenamic Acid (2) 1.65 mins: % by UV peak area at 275 nm, 0.125 mg/ml substrate, 27° C., 16-20 hours; for Hydroxylated Ratio 1:2: flufenamic acid, ratio of UV peak areas at 275 nm
Protocol: (§1) Lyophilised material of mutants of CYP450aluC09, ferredoxinaluF03 and ferredoxin reductaseSCF15A was made as described in examples 3 and 4 and suspended in water (0.5 mL per vial) and biocatalysis was performed at 27° C. in the following conditions: 50 mM potassium phosphate pH 7.4, 5 mM MgCl2, 0.125 mg/ml substrate compound such as diclofenac (Sigma-Aldrich, UK), Aceclofenac (Tokyo Chemical Industry UK Ltd, UK), Indomethacin (Sigma-Aldrich, UK), Flufenamic acid (Sigma-Aldrich, UK), Napropamide (Sigma-Aldrich, UK), celecoxib (LC Laboratories, USA), valsartan (Tokyo Chemical Industry UK Ltd, UK), ruxolitinib (LC Laboratories, USA), 4-pyrrolidylacetophenone (Sigma-Aldrich, UK), tofacitinib (LC Laboratories, USA), bosentan (CarboSynth Ltd, UK), buparvaquone (MedChemtronica, Sweden), BIRB796 (Stratech Scientific Limited, UK), epothilone B (LC Laboratories, USA), ritonavir (Tokyo Chemical Industry UK Ltd, UK) or tivantinib (MedChemtronica, Sweden), P450AluC09 (concentration as in Table 8), 5 mM G6P, 1 mM NADP, 2 UN/ml G6PDH in a final volume of 100 μL. After 16-20 hours at 200 rpm (5 cm orbital shaker, Kuhner AG, Switzerland), reactions were extracted with an equal volume of acetonitrile, centrifuged to remove precipitated proteins and conversion assessed by UPLC-MS analysis.
(§2) UPLC data was obtained as follows:
(§3) Column: Acquity UPLC BEH Shield RP18 1.7 μm 2.1 mm i.d. 50 mm length
(§4) Solvents: H2O, B: Acetonitrile, both with 0.1% Formic acid
(§5) Detector: Waters Acquity UPLC PDA (UV-Vis detection) and Waters Acquity UPLC QDA (MS)
Flufenamic acid elutes at 1.93 minutes, hydroxy-flufenamic acid 1 elutes at 1.68 minutes and hydroxy-flufenamic acid 2 elutes at 1.65 minutes.

[2] = Metabolism of epothilone B by P450 aluC09 and mutants; conditions: percent of substrate being converted; 0.125 mg/ml, 27° C., 16-20 hours; [CYP] per enzyme as in Table 8
Protocol: as §1
(§6) However, of particular note when considering P450 concentration are the results for mutants M12, M20 and M34, as well as the deleterious impact on the range of substrate utility in mutants M39 and M40.

[3] = Metabolism of tofacitinib by P450 aluC09 and mutants; conditions: percent of substrate being converted; 0.125 mg/ml, 27° C., 16-20 hours; [CYP] per enzyme as in Table 8
Protocol: as §1, §6

[4] = Metabolism of buparvaquone by P450 aluC09 and mutants; conditions: percent of substrate being converted; 0.125 mg/ml, 27° C., 16-20 hours; [CYP] per enzyme as in Table 8
Protocol: as §1, §6

[5] = Hydroxylation of aceclofenac catalysed by cytochrome P450 aluC09 and mutants; conditions: for Aceclofenac (Substrate) (1.80 mins) / Dihydroxy-Aceclofenac (1.42 mins) / Hydroxy-Aceclofenac (1) (1.64 min) / Hydroxy-Aceclofenac (2) (1.60 min): % by UV peak area at 275 nm, 0.125 mg/ml substrate, 27° C., 16-20 hours; for Hydroxylated Ratio 2:1: aceclofenac, ratio of UV peak areas at 275 nm
Protocol: as §1, §2, §3, §4, §5
Chromatograms are provided in FIGS. 5a-c; aceclofenac elutes at 1.80 minutes, hydroxy-aceclofenac acid 1 elutes at 1.64 minutes, hydroxy-aceclofenac acid 2 elutes at 1.60 minutes and dihydroxy-aceclofenac elutes at 1.42 minutes.

[6] = Hydroxylation / de-N-ethylation of napropamide catalysed by cytochrome P450 aluC09 and mutants; conditions: for Desethyl Napropamide (1.62 min) / Desethyl-hydroxy-Napropamide (1.41 min) / Hydroxy-Napropamide (1) (1.53 min) / Hydroxy-Napropamide (2), (1.52 min) / M-2Da (unidentified) (1.89 min) / Napropamide (substrate): % by UV peak area at 275 nm, 0.125 mg/ml substrate, 27° C., 16-20 hours; for Hydroxylated Ratio 2:1: napropamide, ratio of UV peak areas
Protocol: as §1, §2, §3, §4, §5
Napropamide elutes at 1.76 minutes, unidentified metabolite (−2 Da) elutes at 1.90 minutes, desethyl-napropamide elutes at 1.62 minutes, hydroxy-napropamide 1 elutes at 1.53 minutes and hydroxy-napropamide 2 elutes at 1.52 minutes and the desethyl-hydroxy-napropamide product elutes at 1.41 minutes.

[7] = Metabolism of 4-pyrrolidylacetophenone by P450 aluC09 and mutants; conditions: percent of substrate being converted; 0.125 mg/ml, 27° C., 16-20 hours; [CYP] per enzyme as in Table 8
Protocol: as §1, §6

[8] = Metabolism of celecoxib by P450 aluC09 and mutants; conditions: percent of substrate being converted; 0.125 mg/ml, 27° C., 16-20 hours; [CYP] per enzyme as in Table 8
Protocol: as §1, §6

[9] = O-demethylation of indomethacin catalysed by cytochrome P450 aluC09 and mutants; conditions: % by UV peak area at 275 nm; 0.125 mg/ml substrate, 27° C., 16-20 hours
Protocol: as §1, §2, §3, §4, §5

[10] = Metabolism of BIRB796 by P450 aluC09 and mutants; conditions: percent of substrate being converted; 0.125 mg/ml, 27° C., 16-20 hours; [CYP] per enzyme as in Table 8
Protocol: as §1, §6

[11] = Metabolism of ruxolitinib by P450 aluC09 and mutants; conditions: percent of substrate being converted; 0.125 mg/ml, 27° C., 16-20 hours; [CYP] per enzyme as in Table 8
Protocol: as §1, §6

[12] = Metabolism of ritonavir by P450 aluC09 and mutants; conditions: percent of substrate being converted; 0.125 mg/ml, 27° C., 16-20 hours; [CYP] per enzyme as in Table 8
Protocol: as §1, §6

[13] = Metabolism of tivantinib by P450 aluC09 and mutants; conditions: percent of substrate being converted; 0.125 mg/ml, 27° C., 16-20 hours; [CYP] per enzyme as in Table 8
Protocol: as §1, §6

[14] = Hydroxylation of diclofenac catalysed by cytochrome P450 aluC09 and mutants (UPLC-PDA-MS); conditions: for 4′,5-dihydroxy-diclofenac 1.38 mins / 4′-hydroxy-diclofenac (1) 1.62 mins / 5-hydroxy-diclofenac (2) 1.58 mins / Diclofenac (Substrate) 1.81 mins: % by UV peak area at 275 nm, 0.125 mg/ml substrate, 27° C., 16-20 hours; for Hydroxylated Ratio hydroxy 1:hydroxy 2: diclofenac, ratio of UV peak areas at 275nm
Protocol: as §1, §2, §3, §4, §5
Illustrative results for the hydroxylation of diclofenac by CYP450aluC09 and selected T291x mutants are summarised below in Table 3 with representative chromatograms resented in FIG. 3a-c; retention times: diclofenac 1.85-1.88 minutes, 5-hydroxydiclofenac 1.60-1.63 minutes, 4′-hydroxydiclofenac 1.65-1.68 minutes, 4′,5-dihydroxydiclofenac 1.40-1.42 minutes. The chromatographic retention times and mass spectra coincided with those of authentic samples.

[15] = Metabolism of valsartan by P450 aluC09 and mutants; conditions: percent of substrate being converted; 0.125 mg/ml, 27° C., 16-20 hours; [CYP] per enzyme as in Table 8
Protocol: as §1, §6

| Molecule | Flufenamic Acid (Substrate) 1.93 mins [1] [%] | Hydroxy-Flufenamic Acid (1) 1.69 mins [1] [%] | Hydroxy-Flufenamic Acid (2) 1.65 mins [1] [%] | Hydroxylated Ratio 1:2 [1] | % conversions (avg) Epothilone B [2] [%] | % conversions (avg) Tofacitinib [3] [%] | % conversions (avg) Buparvaquone [4] [%] | Aceclofenac (Substrate) (1.80 mins) [5] [%] | Dihydroxy-Aceclofenac (1.42 mins) [5] [%] | Hydroxy-Aceclofenac (1) (1.64 min) [5] [%] | Hydroxy-Aceclofenac (2) (1.60 min) [5] [%] | Hydroxylated Ratio 2:1 [5] | Desethyl Napropamide (1.62 min) [6] [%] | Desethyl-hydroxy-Napropamide (1.41 min) [6] [%] | Hydroxy-Napropamide (1) (1.53 min) [6] [%] | Hydroxy-Napropamide (2), (1.52 min) [6] [%] | M-2Da (unidentified) (1.89 min) [6] [%] | Napropamide (substrate) [6] [%] | Hydroxylated Ratio 2:1 [6] | % conversions (avg) Celecoxib [8] [%] | other results |
| --- | --- | --- | --- | --- | --- | --- | --- | --- | --- | --- | --- | --- | --- | --- | --- | --- | --- | --- | --- | --- | --- |
| aluC09M19: cytochrome P450 aluC09 mutant T291A; amino acid sequence SEQ ID NO: 24 (protein, listed as Amycolatopsis lurida) MTDVEETTATLPLARKCPFSPPPEYERLRRESPVSRVGLPSGQTAWALTRLEDIREMLSSPHFSSDRQSPSFPLMVARQIRREDKPFRPSLIAMDPPEHSRARRDVVGEFTVKRMKALQPRIQQIVDEHLDALLAGPKPADLVQALSLPVPSLVICELLGVPYSDHEFFQSCSSRMLSREVTAEERMTAFEQLENYLDELVTKKEANATEDDLLGRQILKQRETGEADHGELVGLAFLLLIAGHETTANMISLGTVTLLENPDQLAKIKADPGKTLAAIEELLRVFTIAEAATSRFATADVEIGGTLIRAGEGVVGLSNAGNHDPDGFENPDTFDIERGARHHVAFGFGVHQCLGQNLARLELQIVFDTLFRRVPGLRIAVPVDELPFKHDSTIYGLHALPVTW | 90.4 | 5.8 | 3.8 | 1.5 | 4.5 | 0 | 17.1 | 6.7 | 48.3 | 6.5 | 38.5 | 5.9 | 50.1 | 4.9 | 2.3 | 3.9 | 6.1 | 34.3 | 1.7 | 4.5 | % conversions (avg) 4-pyrrolidylacetophenone [7]: 0.7%; Indomethacin (1.74 mins) [9]: 93.5%; O-demethyl-Indomethacin (1.52 mins) [9]: 6.5%; % conversions (avg) BIRB796 [10]: 16.6%; % conversions (avg) Ruxolitinib [11]: 50.8%; % conversions (avg) Ritonavir [12]: 65.4%; % conversions (avg) Tivantinib [13]: 26.1%; 4′,5-dihydroxy-diclofenac 1.38 mins [14]: 2.4%; 4′-hydroxy-diclofenac (1) 1.62 mins [14]: 50.0%; 5-hydroxy-diclofenac (2) 1.58 mins [14]: 14.2%; Diclofenac (Substrate) 1.81 mins [14]: 34.8%; Hydroxylated Ratio hydroxy 1:hydroxy 2 [14]: 3.5 |
| aluC09M20: cytochrome P450 aluC09 mutant T291V; amino acid sequence SEQ ID NO: 28 (protein, listed as Amycolatopsis lurida) MTDVEETTATLPLARKCPFSPPPEYERLRRESPVSRVGLPSGQTAWALTRLEDIREMLSSPHFSSDRQSPSFPLMVARQIRREDKPFRPSLIAMDPPEHSRARRDVVGEFTVKRMKALQPRIQQIVDEHLDALLAGPKPADLVQALSLPVPSLVICELLGVPYSDHEFFQSCSSRMLSREVTAEERMTAFEQLENYLDELVTKKEANATEDDLLGRQILKQRETGEADHGELVGLAFLLLIAGHETTANMISLGTVTLLENPDQLAKIKADPGKTLAAIEELLRVFTIAEVATSRFATADVEIGGTLIRAGEGVVGLSNAGNHDPDGFENPDTFDIERGARHHVAFGFGVHQCLGQNLARLELQIVFDTLFRRVPGLRIAVPVDELPFKHDSTIYGLHALPVTW | 93.6 | 4.4 | 2.0 | 2.2 | 21.1 | 4.5 | 15.4 | 4.2 | 35.1 | 33.1 | 27.6 | 0.8 | 56.2 | 7.6 | 2.1 | 6.1 | 4.7 | 25.3 | 2.9 | 2.2 | % conversions (avg) Valsartan [15]: 13.1%; Indomethacin (1.74 mins) [9]: 89.2%; O-demethyl-Indomethacin (1.52 mins) [9]: 10.8%; % conversions (avg) BIRB796 [10]: 22.4%; % conversions (avg) Ruxolitinib [11]: 70.7%; % conversions (avg) Ritonavir [12]: 100%; % conversions (avg) Tivantinib [13]: 22.2%; 4′,5-dihydroxy-diclofenac 1.38 mins [14]: 3.1%; 4′-hydroxy-diclofenac (1) 1.62 mins [14]: 50.1%; 5-hydroxy-diclofenac (2) 1.58 mins [14]: 13.7%; Diclofenac (Substrate) 1.81 mins [14]: 34.8%; Hydroxylated Ratio hydroxy 1:hydroxy 2 [14]: 3.7 |
